Measurements taken from the DeepSol protein solubility set.

Test: soluble on expression in E. coli; label from the status in PepcDB or PDB records

| Sequence | soluble on expression in E. coli |
| --- | --- |
| MKRIVILGGGFGGLYTALRVSQLPWETQQKPEIVLVDQSDRFLFSPLLYELLTGELQSWEIAPPFIELLEGTGIRFYQAVVSGIDIDQQRVHLQDGPEIPYDRLVLTLGGETPLDLVPGAISYAYPFRTIADTYRLEERLRVLEESDAEKIRVAIVGAGYSGVELACKLADRLGERGRFRLVEISDQILRTSPDFNREAAKKALDAKGVFIDLETKVESIGQNTISLEYKNQVDTIPVDLVIWTVGTRVTNVVKSLPFKQNQRGQITNTPTLQVLDHPDIFALGDLADCIDAEGQQVPATAQAAFQQADYAAWNIWASLTQRPLLPFRLEHHHHHH | soluble |
| MINSKVKPQAVVADAHEDTIRSLYMESLHLVERLHRRLLDVIKDEFDRQGRDDVNAVQALLLFNIGNSELTAGELRSRGYYLGSNVSYNVKKLVDLGLINHQRSRVDRRSVRISLTEEGQAIAETVARLYERHVGSIEKVGGIGTGEFSEMNKLLQRLDRFWNDSIAYRL | not soluble |
| GSHMSAGIGESRTELLTWLNGLLNLNYKKIEECGTGAAYCQIMDSIYGDLPMNRVKFNATAEYEFQTNYKILQSCFSRHGIEKTVYVDKLIRCKFQDNLEFLQWLKKHWIRHKDESVYDPDARRKYR | soluble |
| MKAIITKPMCVVGDNKSTVRFETSTPNNPFVEISNQVYARLKRANAAKPFVDVKTKIKPDKAVEQIKQIEKEPNQISSETVTEETSLEKPKASKASKPSTPTPKKA | not soluble |
| GPGSMASSSTADDHSAVAGIVASSASVCGSRDAAASPPTALPKLGSAKQQRTERAFLFDRYPSRKIALRLAYHGHVHDGLAKQKETDNTVEGLVCDALRRLRLIPEDGPHNFGRCGRTDKGVSALGNAFSLTARASCTGDAEPQLPPLDYCSMLNNVLPSTIRIVGCALVDDAFDARFSCVHRTYRYYFFHRGLNLAAMQEAAAFFLGTHNFRNFCKMDVVNVSNFVRTVFSVGLHPSEALPELISYLEIRANSFLYHQIRCIMEVLFLVGRGLEVPSVVQTLLELGDRKPTYPLADGTPLILWDCGFDNVQWQMSHCAFHAMEQELQDIGTALLIRATSATAMRSQLFRWYTGTADVFRKDTSEKDASGEDRSRAVVRRDPELRRLDGWSITGCDWTDPGTAGQMKARKRDLLYYLRTEAKNGQPLPTTTSCEEKTSQTAETIASGALAPVNYVPLLQRETERTYEEEVRELSGKKRARYEVNEAKKAAAAAAHKEVVSED | not soluble |
| MGSDKIHHHHHHMIGNRNSTSLEIAMTEIDDITGFIPQPGPIALVLGATGGVGGAVARALAGRGYHVRALHRDAARMAAKQKERQPALEPVLEWVQGDAMNRDDVIYAAKDASVILHGVNPPGYRNWGTLVLPMIDNTIAAARASGACILMPGTIYNYGPDAFPLLNEESPQHPRTVKGEIRVELERRLEQAAGEGVRVILVRAGDFFGPEAGNNWFAQGLITPGKPVTQVNLPGKPGVSHSWAYLPDVAETFIRLLERVPDMPAFARFHMQGHVDTDGYAMAQAIQRVSGSDSVRFKRFAWWMVPLLSPILPVFRELLEMRYLWREPIALDNRRLVEVLGEEPRTRLDVAVATTLKSLKCLQTSAVHPDGSRSMASETAPQ | not soluble |
| MGSDKIHHHHHHMPTPRPWLYLGTTHALCEDCLALIPAKVVAEDGCVWHLKRCPAHGPQRTMISSDYAYWREARDFIKPGDLPAHFHTQVDKGCPHDCGLCPDHEQHSCLALVEVTDSCGLDCPTCFAQSRPGRGHRSLAEVEAMLDAVVRSEGGSPDIVQISGGEPADHPQILEILRAAKARPIRHVMLNTNGVRLARDPDFATALAGLGPGFEVYLQWDSLEPEALSVLRGADLREVRKGALAALDRHGISTTLVCVMAKGVNDGEVGAIIDHALAVACVRGVSFQPLQDAGRSPGLGKDSRMLPSDIRRAIIEQSNGLFGPADLVPLPCNPESITIAYALRHGNRATAVTGLVPRDLLLSAVPNALTFDAVPGLKDSLMRLLSMSCAGEDTAVQMGKLLCCLPGIQAPASLTYDKVFRLSIVQFLDRYSFCLGQVKRACVHVAQPDGKMIPIDTFNLFHRSNNHD | not soluble |
| MAHHHHHHMNDIYARRLAQATMFHQLMRCHGTLWAATQVTKEQMDYNFIREEFMRVNGRRAMPLLLGAAANENLHQLHLSHLSEHCAWGESARALAVQRQTPLSQRVAALGRMAETIHQVKTASTVQNLFNEQISCMEGISSFEEEPLIEGE | not soluble |
| MRETIPIKYIDTIEINKLSIQDLEDLSSCKYKLLSAYLIGKIPANKILDADELEIYHNERTKKILAKAIKARKLVIVLKATRLCNLRCTYCHSWAEGPNQTILFSTLIHIVRQILAIPNVNRFEFVWHGGEVTLLKPAFFKKLIWLQEQFKRPEQYITNTMQSNIVNISDEWLIFIKGIGMNVGISLDGIPAVNDKRRVDFRGRGTSDRIAKGIKKLQKYDILYGALIVVDREVYQTDMREMLDYFILIELNGIEFLNIVPDNRLTAGEDIGNNFISYAEFIKFLSALFVIWIKGYREKIHIAIFEDFISVLEHPEKKLSACYWSGNCSQEIITLEPNGDVSPCDKYRGDAGSIYGSLLKTDLAGLLTQSSHNQQAIDEEVAATRKMQHCEWFSICHGGCPHDRVINRRHTKGYNDECCGTGKLLATIKAYLADIR | not soluble |
| MLAKRIIPCLDVRDGQVVKGVQFRNHEIIGDIVPLAKRYAEEGADELVFYDITASSDGRVVDKSWVSRVAEVIDIPFCVAGGIKSLEDAAKILSFGADKISINSPALADPTLITRLADRFGVQCIVVGIDTWYDAETGKYHVNQYTGDESRTRVTQWETLDWVQEVQKRGAGEIVLNMMNQDGVRNGYDLEQLKKVREVCHVPLIASGGAGTMEHFLEAFRDADVDGALAASVFHKQIINIGELKAYLATQGVEIRIC | not soluble |
| MAHHHHHHMILKEETVLRKTNAENLAAVRNLNLWGEGLTDVSIVSRLPRIEVLALAANKLTTLSPFAACTQLEELYLRRNNVASMLEIKYLRHLPKLHTLWLMDNPCARHPHYRQIVILCCRHLRHLDETEVSEKERAEAEKLLPEGMLQEMLESESAEAAVGTANKAQLQNRTPVSERKQPMGEVVQGGAIHETGAGRERGHRVTSSDTSGRGPSSAPERRQGSADDGLAQTAVQVQRAMFSSIMALVPELAVQTIEALQKELAEELCRRGKRLPPVVRDRT | not soluble |
| MGSDKIHHHHHHMPYINVRGVEHYYEWVKQPSGDLVKPVMVFIHGWAGSARYWISTANALSDQFDCLLYDLRGFGRSQGKPTVAQASESVVGADSTQEKSQAIQELTYEIEEYAEDLVVLLDELKLQRVYVNAHSMGASVATMFFNRYPQRVERGILTCSGIFEYDEKAFAAFHKFGGYVVKFRPKWLGKIPLVDRMFMARFLHRPIPKSERKAFLEDFLVADYDTALGTIFTSVSKAQAEVMPQEFAKLQVPTLLVAGEYDQIIPAKMGRQAASLNDKVEFVLIPNTAHFPMLEDAPTYLRRVREFLQVATPELQTS | not soluble |
| MTHSHRRHDISDRIWSLLEGHLPGREGAWGGVATDNRQFINAVFWIIRTGAPWRDLPPDYGGWSNTHRRFIRWRDKGIWEKLLEILIDDPDYEWLIMDASHCKVHPHASGARGGNQDMNRTKGGSTPRYIWPWMRMVCRSESLLHKVPLLIARRLAA | not soluble |
| VRMILDTIPKKNRHLVTTHDGYSYLGDAYGLSIAGFVSPNPSVEPSPRDIIALTRTLENLHVPAVFIEPQLALRANHLTVTADKLGIQVCRIYGDSLDDEVPTYLDFMKYNAHSLARCLGQSEGK | not soluble |
| MSSVYTMKRIWLQKDKKAYQAWRELMEKAELQTTEALDYTVGIYDDTALIASGSLSGKTIKCVAVCKKYQSENLLTQLVVHLLEKLREENQLHSFLYTKPKNEQIFQSLGFQKVVANQEVLFMEQGKPDFADYLGYLTQHKKAGPASSIVMNANPFTKGHQYLVEKAAQESPHVYVFVLSEDKSLFSKEARFAMVQKGVAHLPNVTVLSTEDYLVSSATFPTYFLKEKAPLEVAAIQATLDATLFKERIAPILEIQQRYVGEEPYSEVTAVYNQAMQQVFGQTITLTIVPRLASDGELISATKVRKAMAEGDKETLKKFLPATSYQYLVEHKKLMR | not soluble |
